Experimental data reported in patent publication US6136558A, “Heregulin variants” (Genentech, Inc., priority 1998, dated 2000).
Residue numbers refer to the chain shown, from its start. Names may count otherwise. Like-named read-outs stand apart in the source and are kept apart here. Ends that are not written are not given here.

Key:
[1] = target: ErbB-3 receptor-Ig fusion (human) (UniProt P21860); assay: phage ELISA, soluble ErbB-3-Ig as competitor
[2] = target: ErbB-4 receptor-Ig fusion (human) (UniProt Q15303); assay: phage ELISA, soluble ErbB-4-Ig as competitor
[3] = target: ErbB-3-Ig; assay: Inhibition of 125I-HRG-β1 177-244 binding to ErbB-3-Ig by soluble protein
Procedure: (§1) The affinities of the Trx-variant fusions for ErbB receptor-Ig fusions were determined by measuring inhibition of ^125 I-HRG-β1 177-244 binding to ErbB-3-Ig and ErbB-4-Ig. Receptor fusions were coated on plates (Nunc Maxisorp C™ break-apart strip wells, Inter Med, Denmark) via anti-human IgG, as described in Example 1 for phage ELISA. Binding assays were carried out with a constant amount of ^125 I-HRG-β1 177-244 (100-300 pM) and varying concentrations (100 pM-4 μM) of unlabeled Trx-variant fusion. Following incubation for 1-3 h at room temperature, plates were washed, and the amount of bound ^125 I-HRG-β1 177-244 in each well was counted on a gamma counter (Isodata, ICN Biomedic Systems, Huntsville, Ala.). For the ErbB-3 binding assays, the blocking buffer was TBST (0.025 M Tris-HC1 [pH 7.5], 0.15 M NaCl, 0.02% Tween 20™) containing 1% BSA; the binding buffer was RPMI 1640™ cell culture media (Gibco-BRL, Gaithersburg, Md.) containing 2 mM glutamine, 100 U/mL penicillin, 100 μg/mL streptomycin, 10 mM HEPES buffer (pH 7.2), 0.2% BSA; and the wash buffer was TBST. For the ErbB-4 binding assays, PBS containing 1% BSA was used as the blocking and binding buffers, and the wash buffer was PBS containing 0.05% Tween 20™.

[4] = target: ErbB-4-Ig; assay: Inhibition of 125I-HRG-β1 177-244 binding to ErbB-4-Ig by soluble protein
Procedure: as §1

[5] = target: ErbB-2/3 receptor-Ig fusion (ErbB-2/3-Ig); assay: Phage ELISA, competition with soluble ErbB-2/3-Ig; assay type: binding; details: EGF-like domain displayed monovalently on phage as pIII fusion; soluble ErbB-2/3-Ig competing half of the phage off the plate; average of duplicate experiments
From the text: To produce phage displaying the domains, mutagenesis reaction mixtures were electrotransformed into XL1-Blue™ cells (Stratagene, Inc., La Jolla, Calif.), according to the manufacturer's protocol. The transformed cells were then infected with 10^11 plaque-forming units (pfu) M13K07 helper phage (Promega Corp., Madison, Wis.). […] The phage were resuspended in phosphate-buffered saline (PBS: 0.01 M sodium phosphate, 0.1 M NaCl, pH 7.5).
Microtiter plates (Nunc Maxisorp™ 96-well plates, Inter Med, Denmark) for phage ELISA were prepared as follows. The wells were precoated overnight with 0.5 μg of rabbit anti-human IgG (Fc gamma fragment-specific) antibodies (Jackson Immunoresearch, West Grove, Pa.) in 100 μL 50 mM NaCO3 (pH 9.6). The wells were blocked for 30 minutes (min) with 200 μL PBS containing 0.1% bovine serum albumin (BSA) and rinsed with wash buffer (PBS containing 0.05% Tween 20™). The wells were then coated with 0.1 μg ErbB-2/3-Ig in binding buffer (PBS, 0.1% BSA, 0.05% Tween 20™) for 1 h, and washed again.
Following incubation for 2 h at room temperature, plates were washed extensively and treated with a 1:900 dilution of anti-M13 horseradish peroxidase conjugate (Pharmacia, Piscataway, N.J.) for 20 min. The amount of phage binding was determined by assaying horseradish peroxidase activity using o-phenylenediamine dihydrochloride) substrate solution (Sigma Chemical Company, St. Louis, Mo.).

[6] = target: ErbB-3 receptor-Ig fusion (human) (UniProt P21860); assay: phage ELISA, ratio to wild-type HRG-β1 177-244 on phage
[7] = target: ErbB-4 receptor-Ig fusion (human) (UniProt Q15303); assay: phage ELISA, ratio to wild-type HRG-β1 177-244 on phage; clone selected on ErbB-4-Ig
[8] = target: ErbB-4 receptor-Ig fusion (human) (UniProt Q15303); assay: phage ELISA, ratio to wild-type HRG-β1 177-244 on phage; clone selected on ErbB-4-Ig with ErbB-3-Ig counter-selection
[9] = target: ErbB-2/3 receptor-Ig fusion (human) (UniProt P04626); assay: phage ELISA, soluble ErbB-2/3-Ig as competitor
[10] = target: ErbB-3 receptor-Ig fusion (human) (UniProt P21860); assay: displacement of 125I-HRG-β1 177-244 from ErbB-3-Ig
[11] = target: ErbB-4 receptor-Ig fusion (human) (UniProt Q15303); assay: displacement of 125I-HRG-β1 177-244 from ErbB-4-Ig
[12] = soluble HRG-β1 EGF variant free of pIII, inhibition of 125I-HRG binding, read-out: ErbB-3-Ig EC50
[13] = soluble HRG-β1 EGF variant free of pIII, inhibition of 125I-HRG binding, read-out: ErbB-4-Ig EC50

## HRG-β1 177-244 G194A on phage (ligand)
[1]
  EC50: 500 nM
[2]
  EC50: 65 nM

## HRG-β1 177-244 R220A on phage (ligand)
[1]
  EC50: > 1000 nM
[2]
  EC50: > 1000 nM

## HRG-β1 177-244 K200A on phage (ligand)
[1]
  EC50: 20 nM
[2]
  EC50: 25 nM

## F1: single library F variant: Met198Lys and Met226Ile
[3]; [12]
  EC50: 0.6 ± 0.04 nM
[4]; [13]
  EC50: 0.26 ± 0.011 nM

## HRG-β1 177-244 E215A on phage (ligand)
[1]
  EC50: 51 nM
[2]
  EC50: 32 nM

## HRG-β1 177-244 N192A on phage (ligand)
[1]
  EC50: > 1000 nM
[2]
  EC50: 188 nM

## HRG7: HRG-β1 177-228 fused to pIII 247 (SHLVKCAEKEKTFCVNGGECFMVKDLSNPSRYLCKCPNEFTGDRCQNYVMAS; cysteine pairing not given here; also: fused to pIII 247)
[5]
  EC50: 42 nM

## HRG-β1 177-244 P205A on phage (ligand)
[1]
  EC50: 22 nM
[2]
  EC50: 8 nM

## HRG-β1 177-244 L179M on phage (ligand)
[6]
  EC50 Mut/Wt: 1.2
[7]
  EC50 Mut/Wt: 1.5

## HRG-β1 177-244 H178L with Met in place of 228-231, on phage (ligand)
[6]
  EC50 Mut/Wt: 6.4
[8]
  EC50 Mut/Wt: 1.7

## A3: HRG-β1 EGF: S177W, H178E, K181P
[3]; [12]
  EC50: 4.3 ± 0.2 nM
[4]; [13]
  EC50: 2.1 ± 0.1 nM

## HRG-β1 177-244 F216A on phage (ligand)
[1]
  EC50: 500 nM
[2]
  EC50: > 1000 nM

## HRG6: HRG-β1 177-227 fused to pIII 247 (SHLVKCAEKEKTFCVNGGECFMVKDLSNPSRYLCKCPNEFTGDRCQNYVMA; cysteine pairing not given here; also: fused to pIII 247)
[5]
  EC50: 40 nM

B1: HRG6 (ligand)
chain: SHLVKCAEKEKTFCVNGGECFMVKDLSNPSRYLCKCPNEFTGDRCQNYVMA
[9]
  EC50: 40 nM

B2: TH-WT (thioredoxin fused at its C-terminus to wild-type HRG-β1 146-244) (ligand)
chain: DDDDKAYVSSESPIRISVSTEGANTSSSTSTSTTGTSHLVKCAEKEKTFCVNGGECFMVKDLSNPSRYLCKCPNEFTGDRCQNYVMASFYKHLGIEFMEAEELY
[3]; soluble thioredoxin (Trx) fusion, inhibition of 125I-HRG-β1 177-244 binding, read-out: Sol EC50, binding to the ErbB-3 Receptor
  EC50: 47.6 nM
[4]; soluble thioredoxin (Trx) fusion, inhibition of 125I-HRG-β1 177-244 binding, read-out: Sol EC50, binding to the ErbB-4 Receptor
  EC50: 15.4 nM
[10]
  EC50: 47.6 nM
[11]
  EC50: 15.4 nM

B3: Trx-HRG-β1 146-244 F229A fusion (ligand)
chain: B2 chain with F89A
[10]
  EC50: 177 nM
[11]
  EC50: 89.9 nM

B4: HRG4 (ligand)
chain: YVSSESPIRISVSTEGANTSSSTSTSTTGTSHLVKCAEKEKTFCVNGGECFMVKDLSNPSRYLCKCPNEFTGDRCQNYVMA
[5]
  EC50: 38 nM
[9]
  EC50: 38 nM

B5: HRG11 (ligand)
chain: SHLVKCAEKEKTFCVNGGECFMVKDLSNPSRYLCKCPNEFTGDRCQNYVMASFYGGGSGGG
[9]
  EC50: 19 nM

B6: HRG11: HRG-β1 177-230 attached to pIII 247 through GGGSGGG linkage (protein)
chain: B5 chain
modifications: also: attached to pIII 247 through GGGSGGG linkage
notes: HRG-β1 177-230 attached to pIII 247 through GGGSGGG linkage
[5]
  EC50: 19 nM

B7: HRG7 (ligand)
chain: SHLVKCAEKEKTFCVNGGECFMVKDLSNPSRYLCKCPNEFTGDRCQNYVMAS
[9]
  EC50: 42 nM

B8: HRG5 (ligand)
chain: YVSSESPIRISVSTEGANTSSSTSTSTTGTSHLVKCAEKEKTFCVNGGECFMVKDLSNPSRYLCKCPNEFTGDRCQNYVMASFYKHLGIEFMEAEELY
[5]
  EC50: 4.7 nM
[9]
  EC50: 4.7 nM
